Assay results as given in patent US20200054723A1 (ALLAKOS, published 2020).
Several values for one entry are separate records, joined by “and”; a condition that tells them apart may be missing. Identical values can stand only once.

Legend:
[1] = biological target: T1, baboon Siglec-8 Domains 1, 2, and 3 Fusion Protein (olive baboon (Papio anubis)); test: ELISA, coated fusion protein
T1 construct: fused to human Ig-Fc
Description: (§1) To identify the region comprising the epitope for anti-Siglec-8 antibodies, fusion proteins containing each of the Siglec-8 extracellular domains fused to human Ig-Fc were expressed and purified from CHO cells.
(§2) For the antibody binding assays, ELISA plates (MaxiSorp; Nunc) were coated overnight at 4° C. with fusion protein at 0.2 μg/ml and blocked for 1 hour at room temperature with 2% BSA in PBS. Antibodies at 1 μg/ml were added and the plates were incubated for 2 hours at room temperature. After washing the plates, horseradish peroxidase conjugated secondary antibody was added and the plates were incubated for 1 hour. Secondary antibodies were anti-human H+L HRP (Jackson ImmunoResearch, Catalog Number 709-035-149) for humanized antibodies or anti-mouse H+L HRP (Jackson ImmunoResearch, Catalog Number 715-035-151) for mouse antibodies. The plates were developed with TMB Substrate (Sigma, Catalog Number T0440-1L).

[2] = biological target: T2, human Siglec-8 on human cells (eosinophils, mast cells) (human, UniProt Q9NYZ4 17-499); test: cell-based or functional assay
T2 sequence (Q9NYZ4 17-499): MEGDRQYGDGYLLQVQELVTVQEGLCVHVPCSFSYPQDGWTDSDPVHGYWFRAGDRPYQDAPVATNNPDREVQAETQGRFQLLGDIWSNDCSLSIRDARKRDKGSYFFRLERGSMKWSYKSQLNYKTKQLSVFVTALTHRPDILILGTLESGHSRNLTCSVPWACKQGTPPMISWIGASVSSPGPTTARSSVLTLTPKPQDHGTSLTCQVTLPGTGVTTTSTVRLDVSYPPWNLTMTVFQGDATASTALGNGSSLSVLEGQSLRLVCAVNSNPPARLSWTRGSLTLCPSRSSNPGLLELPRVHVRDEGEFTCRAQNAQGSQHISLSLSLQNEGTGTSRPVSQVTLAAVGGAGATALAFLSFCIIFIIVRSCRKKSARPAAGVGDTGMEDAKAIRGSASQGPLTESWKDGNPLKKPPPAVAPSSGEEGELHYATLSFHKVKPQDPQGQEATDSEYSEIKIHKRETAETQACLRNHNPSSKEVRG

[3] = biological target: T2, human Siglec-8 on human cells …; test: cell-based or functional assay; remark: listed apart in the source
[4] = biological target: T3, Dimeric Siglec-8 (human Siglec-8 ECD protein) (human, UniProt Q9NYZ4 17-363); test: SPR (Biacore), antibody captured, dimeric Siglec-8 as analyte, 1:1 global fit (avidity)
T3 construct: extracellular domain; Analyte of the Biacore avidity assay
T3 sequence (Q9NYZ4 17-363): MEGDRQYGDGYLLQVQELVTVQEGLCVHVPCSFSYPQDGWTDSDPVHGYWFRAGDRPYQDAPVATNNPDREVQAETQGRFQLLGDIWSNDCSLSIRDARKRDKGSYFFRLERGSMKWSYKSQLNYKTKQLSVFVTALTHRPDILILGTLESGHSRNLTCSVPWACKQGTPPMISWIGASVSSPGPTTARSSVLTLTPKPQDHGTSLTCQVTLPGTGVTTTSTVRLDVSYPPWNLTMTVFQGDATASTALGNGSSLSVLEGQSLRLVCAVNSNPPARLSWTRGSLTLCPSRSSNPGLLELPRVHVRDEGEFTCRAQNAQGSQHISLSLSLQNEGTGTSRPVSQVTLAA
Description: Antibody avidity determination was carried out by SPR analysis using a Biacore T200. Binding of human Siglec-8 ECD protein to mouse, chimeric and humanized anti-Siglec-8 antibodies was measured on a […]. The capture antibodies (goat-anti-human-Fc and goat-anti-mouse-Fc from Jackson Immunoresearch) were immobilized on a CM5 chip according to manufacturer's protocol (Biacore, GE). Flow-cell 1, 2 and 3 were immobilized with anti-human, and flow cell 4 with anti-mouse antibodies. The assay was conducted at 25° C., at a flow rate of […]. Assay buffer was 20 mM Tris-HCl pH 8.3, 150 mM Sodium Chloride, 0.05% Polysorbate 20, 10% glycerol, 0.1% BSA, made in ultrapure water. Dimeric Siglec-8 (impurities of monomeric and oligomeric Siglec-8 were removed by size-exclusion chromatography) was diluted in assay buffer from 15 nM to […] with 2× dilutions. Antibodies were captured to a change of approximately 120 RU. Six-minute high performance injections were conducted, followed by 120-minute dissociations. Flow cells were regenerated with 50 mM glycine pH 1.5. Results were double blanked with an empty reference cell and multiple assay buffer injections, and analyzed with 1:1 global fit parameters.

[5] = biological target: T4, recombinant human Siglec-8 extracellular domain (ECD) (human, UniProt Q9NYZ4 17-363); test: ELISA, coated Siglec-8 ECD
T4 construct: extracellular domain; also called Siglec-8 ECD; full Siglec-8 ECD
T4 sequence (Q9NYZ4 17-363): as above

[6] = biological target: T5, human Siglec-8 Domains 1 and 2 Fusion Protein (human); test: ELISA, coated fusion protein, antibody at 1 µg/ml
T5 construct: fused to human Ig-Fc, expressed in CHO cells; also called Domain 1 + 2-Fc
T5 sequence (chain, as listed by the source limits assumed): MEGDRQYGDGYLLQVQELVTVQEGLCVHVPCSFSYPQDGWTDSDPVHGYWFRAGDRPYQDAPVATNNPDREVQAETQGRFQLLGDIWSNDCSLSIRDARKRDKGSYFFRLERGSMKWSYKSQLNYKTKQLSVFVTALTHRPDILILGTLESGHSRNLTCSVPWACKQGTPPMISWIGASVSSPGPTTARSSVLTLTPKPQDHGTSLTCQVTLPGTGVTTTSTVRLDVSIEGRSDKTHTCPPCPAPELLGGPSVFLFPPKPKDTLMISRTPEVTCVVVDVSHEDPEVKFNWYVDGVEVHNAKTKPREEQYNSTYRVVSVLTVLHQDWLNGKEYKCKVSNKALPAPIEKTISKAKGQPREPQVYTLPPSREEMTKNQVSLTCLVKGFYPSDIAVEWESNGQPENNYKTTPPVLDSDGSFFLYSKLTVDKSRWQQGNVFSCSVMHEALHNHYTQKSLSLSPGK
Description: as §1, §2

[7] = biological target: T6, human Siglec-8 Domains 1, 2, and 3 Fusion Protein (human); test: ELISA, coated fusion protein, antibody at 1 µg/ml
T6 construct: fused to human Ig-Fc, expressed in CHO cells; also called Domain 1 + 2 + 3-Fc
T6 sequence (chain, as listed by the source limits assumed): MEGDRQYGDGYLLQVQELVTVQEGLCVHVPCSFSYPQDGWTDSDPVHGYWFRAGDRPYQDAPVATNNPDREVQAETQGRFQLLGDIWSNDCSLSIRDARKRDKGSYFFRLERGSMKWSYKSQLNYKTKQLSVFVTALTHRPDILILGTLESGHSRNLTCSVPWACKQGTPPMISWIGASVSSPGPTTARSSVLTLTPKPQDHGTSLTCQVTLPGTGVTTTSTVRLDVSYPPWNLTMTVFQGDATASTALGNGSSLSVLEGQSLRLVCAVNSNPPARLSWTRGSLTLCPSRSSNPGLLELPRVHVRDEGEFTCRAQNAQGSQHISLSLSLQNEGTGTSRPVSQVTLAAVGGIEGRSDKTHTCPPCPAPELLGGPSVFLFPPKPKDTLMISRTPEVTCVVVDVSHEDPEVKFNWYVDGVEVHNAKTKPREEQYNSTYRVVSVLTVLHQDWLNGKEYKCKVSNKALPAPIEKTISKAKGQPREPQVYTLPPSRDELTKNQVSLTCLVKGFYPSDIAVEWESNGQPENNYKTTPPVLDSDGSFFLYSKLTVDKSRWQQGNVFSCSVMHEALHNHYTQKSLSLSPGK
Description: as §1, §2

[8] = biological target: T7, human Siglec-8 Domain 1 Fusion Protein (human); test: ELISA, coated fusion protein, antibody at 1 µg/ml
T7 construct: fused to human Ig-Fc, expressed in CHO cells; also called Domain 1-Fc
T7 sequence (chain, as listed by the source limits assumed): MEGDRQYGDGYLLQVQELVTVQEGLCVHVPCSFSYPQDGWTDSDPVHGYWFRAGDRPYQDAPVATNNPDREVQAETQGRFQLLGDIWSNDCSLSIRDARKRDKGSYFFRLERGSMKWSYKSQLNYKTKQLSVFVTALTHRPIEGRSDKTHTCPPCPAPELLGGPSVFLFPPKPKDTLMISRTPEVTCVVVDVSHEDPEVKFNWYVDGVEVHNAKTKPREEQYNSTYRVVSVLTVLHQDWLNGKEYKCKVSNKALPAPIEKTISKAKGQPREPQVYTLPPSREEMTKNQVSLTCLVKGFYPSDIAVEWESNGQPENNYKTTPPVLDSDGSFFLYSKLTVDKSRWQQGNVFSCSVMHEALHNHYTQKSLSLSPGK
Description: as §1, §2

[9] = biological target: T1, baboon Siglec-8 Domains 1, 2, and 3 …; test: ELISA, baboon cross-reactivity
Description: as §1, §2

[10] = biological target: T6, human Siglec-8 Domains 1, 2, and 3 …; test: Western blot of reduced SDS-PAGE (linear epitope)
[11] = biological target: T4, recombinant human Siglec-8 …; test: ELISA, coated Siglec-8 ECD; remark: listed apart in the source
[12] = biological target: T7, human Siglec-8 Domain 1 Fusion Protein; test: ELISA, coated fusion protein
Description: as §1, §2

T1 sequence (chain, as listed by the source limits assumed): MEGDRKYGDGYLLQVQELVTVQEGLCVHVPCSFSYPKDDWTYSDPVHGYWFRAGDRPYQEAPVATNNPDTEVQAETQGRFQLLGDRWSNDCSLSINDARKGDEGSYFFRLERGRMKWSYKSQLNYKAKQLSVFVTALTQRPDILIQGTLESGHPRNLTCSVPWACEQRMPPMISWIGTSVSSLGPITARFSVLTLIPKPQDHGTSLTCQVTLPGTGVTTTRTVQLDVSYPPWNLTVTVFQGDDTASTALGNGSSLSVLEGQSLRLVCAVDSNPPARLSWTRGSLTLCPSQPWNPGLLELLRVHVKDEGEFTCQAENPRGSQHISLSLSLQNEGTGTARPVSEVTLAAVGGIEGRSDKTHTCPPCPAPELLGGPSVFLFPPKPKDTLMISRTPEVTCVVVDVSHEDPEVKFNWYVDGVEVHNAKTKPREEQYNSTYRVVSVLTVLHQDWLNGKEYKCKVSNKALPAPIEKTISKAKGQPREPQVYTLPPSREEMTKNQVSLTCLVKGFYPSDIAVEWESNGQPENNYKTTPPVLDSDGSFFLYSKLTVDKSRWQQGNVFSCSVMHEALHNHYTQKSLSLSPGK

Binder	binding result [1]	Mean EC50 (ng/ml) for eosinophil depletion [3] [ng/mL]	Kd [4] [nM]	koff [4] [s⁻¹]	kon [4] [M⁻¹ s⁻¹]	binding result [6]	binding result [7]	binding result [9]	binding result [10]	Mean EC50 (ng/ml) for eosinophil killing (2 donors) [2] [ng/mL]	also measured
HEKA IgG1 antibody (antibody) heavy: not shown light: EIVLTQSPATLSLSPGERATLSCSATSSVSYMHWFQQKPGQAPRLLIYSTSNLASGIPARFSGSGSGTDFTLTISSLEPEDFAVYYCQQRSSYPFTFGPGTKLDIKRTVAAPSVFIFPPSDEQLKSGTASVVCLLNNFYPREAKVQWKVDNALQSGNSQESVTEQDSKDSTYSLSSTLTLSKADYEKHKVYACEVTHQGLSSPVTKSFNRGEC	–	4.3	0.017	1.11e-05	638000	binds	binds	–	–	–	EC50 [5]: 0.068 nM and 0.054 nM and 0.064 nM and 0.112 nM; binding result [8]: binds
murine 1H10 antibody (antibody, mouse IgG1, V domains shown, murine IgG1 heavy chain and kappa light chain) VH: EVQLQQSGAELVRPGASVKLSCTASGFNIKDYYMYWVKQRPEQGLEWIGRIAPEDGDTEYAPKFQGKATVTADTSSNTAYLHLSSLTSEDTAVYYCTTEGNYYGSSILDYWGQGTTLTVSS VL: DIQMTQTTSSLSASLGDRVTISCRASQDITNYLNWYQQKPDGTVKLLIYFTSRLHSGVPSRFSGSGSGTDYSLTISNLEQEDIATYFCQQGNTLPWTFGGGTKLEIK	–	–	–	–	–	–	–	binds	binds	41	–
HA2KG (antibody, human IgG1, V domains shown, human IgG1/kappa) VH: QVQLQESGPGLVKPSETLSLTCTVSGGSISIYGAHWIRQPPGKGLEWIGVIWAGGSTNYNSALMSRVTISVDTSKNQFSLKLSSVTAADTAVYYCARDGSSPYYYSMEYWGQGTLVTVSS VL: EIVLTQSPATLSLSPGERATLSCSATSSVSYMHWYQQKPGQAPRLLIYSTSNLASGIPARFSGSGSGTDFTLTISSLEPEDFAVYYCQQRSSYPFTFGPGTKLDIK	–	–	–	–	–	–	–	–	–	–	binding result [11]: no binding
murine 4F11 antibody (antibody, mouse IgG1, V domains shown, murine IgG1 heavy chain and kappa light chain) VH: QVQLQQSGAELVKPGASVKISCKASGYAFRSSWMNWVKQRPGKGLEWIGQIYPGDDYTNYNGKFKGKVTLTADRSSSTAYMQLSSLTSEDSAVYFCARLGPYGPFADWGQGTLVTVSA VL: QIVLTQSPAIVSASPGEKVTMTCSASSSVSYMYWYQQRPGSSPRLLIYDTSSLASGVPVRFSGSGSGTSYSLTISRIESEDAANYYCQQWNSDPYTFGGGTKLEIK	–	–	–	–	–	–	–	binds	binds	5.9	–

Further lines, with some results ahead:

binding result [1]	Mean EC50 (ng/ml) for eosinophil depletion [3] [ng/mL]	Kd [4] [nM]	koff [4] [s⁻¹]	kon [4] [M⁻¹ s⁻¹]	binding result [6]	binding result [7]	binding result [9]	binding result [10]	Binder	Mean EC50 (ng/ml) for eosinophil killing (2 donors) [2] [ng/mL]	also measured
no binding (tested: 1 µg/ml)	6.8	0.028	1.54e-05	556000	–	–	–	–	mouse 2E2 antibody (antibody, mouse IgG1, kappa, murine IgG1/kappa; also called m2E2; murine 2E2) heavy: QVQLKRASGPGLVAPSQSLSITCTVSGFSLTIYGAHWVRQPPGKGLEWLGVIWAGGSTNYNSALMSRLSISKDNSKSQVFLKINSLQTDDTALYYCARDGSSPYYYSMEYWGQGTSVTVSSAKTTPPSVYPLAPGSAAQTNSMVTLGCLVKGYFPEPVTVTWNSGSLSSGVHTFPAVLESDLYTLSSSVTVPSSPRPSETVTCNVAHPASSTKVDKKIVPRDCGCKPCICTVPEVSSVFIFPPKPKDVLTITLTPKVTCVVVDISKDDPEVQFSWFVDDVEVHTAQTQPREEQFNSTFRSVSELPIMHQDWLNGKEFKCRVNSAAFPAPIEKTISKTKGRPKAPQVYTIPPPKEQMAKDKVSLTCMITDFFPEDITVEWQWNGQPAENYKNTQPIMNTNGSYFVYSKLNVQKSNWEAGNTFTCSVLHEGLHNHHTEKSLSHSPG light: QIILTQSPAIMSASPGEKVSITCSATSSVSYMHWFQQKPGTSPKLWIYSTSNLASGVPVRFSGSGSGTSYSLTISRMEAEDAATYYCQQRSSYPFTFGSGTKLEIKADAAPTVSIFPPSSEQLTSGGASVVCFLNNFYPKDINVKWKIDGSERQNGVLNSWTDQDSKDSTYSMSSTLTLTKDEYERHNSYTCEATHKTSTSPIVKSFNRNEC	6.9	–
no binding (tested: 1 µg/ml)	–	–	–	–	binds	binds	–	–	murine 1C3 antibody (antibody, mouse IgG2a, V domains shown, murine IgG2a heavy chain and kappa light chain) VH: EVQVVESGGDLVKSGGSLKLSCAASGFPFSSYAMSWVRQTPDKRLEWVAIISSGGSYTYYSDSVKGRFTISRDNAKNTLYLQMSSLKSEDTAMYYCARHETAQAAWFAYWGQGTLVTVSA VL: QIVLTQSPAIMSASPGEKVTMTCSASSSVSYMHWYQQKSGTSPKRWIYDTSKLAYGVPARFSGSGSGTSYSLTISSMEAEDAATYYCQQWSSNPPTFGGGTKLEIK	7.7	binding result [12]: no binding (tested: 1 µg/ml)
